Measurements: patent US20230118104A1, “COMPOSITIONS AND METHODS FOR TREATING PANCREATIC ENZYME DEFICIENCIES IN MAMMALS” (Vets Plus, Inc., priority 2018, published 2023)

B1: Porcine Amylase: Amylase enzyme from porcine (protein, UniProt P00690 16-511, looked up)
Pancreatic alpha-amylase: QYAPQTQSGRTSIVHLFEWRWVDIALECERYLGPKGFGGVQVSPPNENIVVTNPSRPWWERYQPVSYKLCTRSGNENEFRDMVTRCNNVGVRIYVDAVINHMCGSGAAAGTGTTCGSYCNPGNREFPAVPYSAWDFNDGKCKTASGGIESYNDPYQVRDCQLVGLLDLALEKDYVRSMIADYLNKLIDIGVAGFRIDASKHMWPGDIKAVLDKLHNLNTNWFPAGSRPFIFQEVIDLGGEAIQSSEYFGNGRVTEFKYGAKLGTVVRKWSGEKMSYLKNWGEGWGFMPSDRALVFVDNHDNQRGHGAGGASILTFWDARLYKVAVGFMLAHPYGFTRVMSSYRWARNFVNGQDVNDWIGPPNNNGVIKEVTINADTTCGNDWVCEHRWRQIRNMVWFRNVVDGQPFANWWANGSNQVAFGRGNRGFIVFNNDDWQLSSTLQTGLPGGTYCDVISGDKVGNSCTGIKVYVSSDGTAQFSISNSAEDPFIAIHAESKL
B2: Porcine Lipase: Lipase enzyme from porcine (protein, UniProt P00591 1-450, looked up)
Pancreatic triacylglycerol …: SEVCFPRLGCFSDDAPWAGIVQRPLKILPWSPKDVDTRFLLYTNQNQNNYQELVADPSTITNSNFRMDRKTRFIIHGFIDKGEEDWLSNICKNLFKVESVNCICVDWKGGSRTGYTQASQNIRIVGAEVAYFVEVLKSSLGYSPSNVHVIGHSLGSHAAGEAGRRTNGTIERITGLDPAEPCFQGTPELVRLDPSDAKFVDVIHTDAAPIIPNLGFGMSQTVGHLDFFPNGGKQMPGCQKNILSQIVDIDGIWEGTRDFVACNHLRSYKYYADSILNPDGFAGFPCDSYNVFTANKCFPCPSEGCPQMGHYADRFPGKTNGVSQVFYLNTGDASNFARWRYKVSVTLSGKKVTGHILVSLFGNEGNSRQYEIYKGTLQPDNTHSDEFDSDVEVGDLQKVKFIWYNNNVINPTLPRVGASKITVERNDGKVYDFCSQETVREEVLLTLNPC

Assays:
Assay type in all cases: biochemical
[1] = Amylase enzyme analysis, Benedict's Test, substrate Starch; settings: enzyme 1 mg/ml, 10 minutes, pH 7, 38° C., 580 nm, n = 4
Protocol: (§1) Amylase enzyme from porcine and Bacillus amyloliquefaciens at 1 mg/ml concentration and a control of no enzymes were subjected to the Benedict's Test for 10 minutes at pH 7, 38° C., followed by spectrophotometric analysis at […].

[2] = Amylase enzyme analysis, Benedict's Test, substrate Dextrose; settings: enzyme 1 mg/ml, 10 minutes, pH 7, 38° C., 580 nm, n = 4
Protocol: as §1

[3] = Amylase enzyme analysis, Benedict's Test, substrate Maltose; settings: enzyme 1 mg/ml, 10 minutes, pH 7, 38° C., 580 nm, n = 4
Protocol: as §1

[4] = Lipase enzyme analysis, free fatty acid (Phenolphthalein) Test; settings: substrate Fat / Vegetable oil; enzyme 1 mg/ml; 480 nM; n = 4
Protocol: Lipase enzyme from porcine and Rhizopus oryzae at 1 mg/ml concentration and a control of no enzymes were subjected the free fatty acid (Phenolphthalein) Test followed by spectrophotometric analysis at […].

Molecule | absorbance, Benedict's Test [1] | absorbance, Benedict's Test [2] | absorbance, Benedict's Test [3] | absorbance, free fatty acid (Phenolphthalein) Test [4]
B1 | 2.087 +/− 0.11 | 3.078 +/− 0.13 | 3.108 +/− 0.15 | 
B2 |  |  |  | 3.17 +/− 0.11
